According to PMC12203938:
Several values for one entry are separate records, joined by “and”; a condition that tells them apart may be missing. Equal entries are not always repeated. One block for each substance: values may come before it.

Tests used:
[1] = molecular target: firefly luciferase FLUC^(ΔCys, K141C, K491C), biotinylated, Alexa Fluor 647-labelled (firefly) [luciferase: P08659]; assay: single-molecule TIRF colocalisation and photobleaching step counting; AF647-labelled client (2 μM) with AF488-labelled sHsp or SSB (4 μM) in 50 mM phosphate buffer pH 7.4 at 42°C for up to 7 h; aliquots cross-linked with BS3 (250 μM), diluted to 1-20 nM; biotinylated FLUC or rhodanese held on a NeutrAvidin coverslip; imaged at 20°C; chance colocalisation subtracted
[2] = molecular target: αB-crystallin with an additional C-terminal cysteine (αB-c_(C176)), Alexa Fluor 488-labelled (human) (UniProt P02511); assay: as above
[3] = molecular target: chloride intracellular channel 1, CLIC1^C24 (C59A, C89A, C178A, C191A, C223A), Alexa Fluor 647-labelled (UniProt O00299); assay: single-molecule TIRF colocalisation and photobleaching step counting; AF647-labelled CLIC (2 μM) with AF488-labelled sHsp (4 μM) in 50 mM phosphate buffer pH 7.4 at 42°C for up to 7 h; aliquots cross-linked with BS3 (250 μM), diluted to 1-20 nM; His-tagged CLIC held through a biotinylated anti-6X His antibody on a NeutrAvidin coverslip; imaged at 20°C; chance colocalisation subtracted
[4] = molecular target: rhodanese^(K135C, K174C) with AviTag, biotinylated, Alexa Fluor 647-labelled (UniProt P00586); assay: single-molecule TIRF colocalisation and photobleaching step counting; AF647-labelled client (2 μM) with AF488-labelled sHsp or SSB (4 μM) in 50 mM phosphate buffer pH 7.4 at 42°C for up to 7 h; aliquots cross-linked with BS3 (250 μM), diluted to 1-20 nM; biotinylated FLUC or rhodanese held on a NeutrAvidin coverslip; imaged at 20°C; chance colocalisation subtracted

FLUC subunits in complexes with αB-c [1]: 8 subunits | colocalised αB-c subunits per complex (1 h) (subunits/complex) [1]: 13 | percent of client molecules colocalised with the sHsp (within 0.3 h) [1]: 40% | stoichiometry N (subunits/oligomer) [2]: 6 | percent of client molecules colocalised with the sHsp (within 0.3 h) [3]: 20%
Substance: αB-crystallin with an additional C-terminal cysteine (αB-c_(C176)), Alexa Fluor 488-labelled (from UniProt P02511 1-175) (natural protein)

FLUC subunits in complexes with Hsp27 (1 h) (FLUC subunits/complex) [1]: 5 | FLUC subunits per molecule, in and out of complexes with Hsp27 (0 h) [1]: 2 subunits | median FLUC subunits in complexes with Hsp27 (0.6 h) (subunits per complex) [1]: 20 | percent of client molecules colocalised with the sHsp (after 1 h) [1]: 17% | percent of client molecules colocalised with the sHsp (within 0.6 h) [1]: 35% | stoichiometry N ([1]; scale: Hsp27:FLUC): 0.68 and 1.75 and 1.24 | percent of client molecules colocalised with the sHsp (within 0.3 h) [4]: 40% | percent of client molecules colocalised with the sHsp (first hour) [3]: 15% | stoichiometry N ([3]; scale: Hsp27:CLIC): 0.29 and 0.69
Substance: Hsp27 cysteine mutant (Hsp27_(C137S,C207)), Alexa Fluor 488-labelled (from UniProt P04792 1-205) (natural protein)

percent colocalised [4]: < 3%
Substance: single-stranded binding protein (SSB), fluorescently labelled, non-chaperone control (from UniProt P0AGE0 1-178) (natural protein)
